B1: Treponema denticola Cas2 (natural protein)
chain: MRVIVFFDLPVITPENRHNYSVFRKYLIKSGFIMQQKSVYSKLVLNLTNRDSIVKSIEKNKPPEGLVEVLTVTEKQYAKMEIIIGESKTEYLNTDERLVVL
notes: Cas2 of Treponema denticola, type II-A CRISPR-Cas system; gene amplified and cloned into a modified pET32a vector with a precession enzyme cleavage site; A GST-tagged Cas2 (pGEX-6p-1, GST removed) was also made; Dimer by the crystal structure; also called Td-Cas2; WT-Cas2; not shown: Trx, N-terminal, cleaved

Legend:
[1] = molecular target: the molecule itself; assay: crystal structure; Cas2 with peptide at molar ratio 1:1.2, hanging drop, 15% PEG3350, 10% glycerol, 0.1 M Tris pH 6.4; 2.0 Å
[2] = molecular target: T1, Treponema denticola Cas2 (Treponema denticola, UniProt Q73QW4 1-101); assay: ITC
T1 chain: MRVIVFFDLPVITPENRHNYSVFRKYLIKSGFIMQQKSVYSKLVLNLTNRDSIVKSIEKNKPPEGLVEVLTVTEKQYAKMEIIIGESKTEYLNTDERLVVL

[3] = molecular target: Treponema denticola Cas2 (Treponema denticola) (UniProt Q73QW4); assay: ITC; AcrVA5 (400 µM) injected into 50 µM Cas2 in the sample cell, 25 °C, 20 mM Tris pH 7.4, 200 mM NaCl; also AcrVA5 mutants and AcrVA5 peptides with Cas2
[4] = molecular target: B1; assay: as above; settings: both partners purified

B1
stoichiometry N [1]: 2

B2: AcrVA5-L5A (natural protein)
chain: MKIEASGGYICYSIEEDEVTIDMVEVTTKRQGIGSQLIDMVKDVAREVGLPIGLYAYPQDDSISQEDLIEFYFSNDFEYDPDDVDGRLMRWS
Kd [2]: 1060 nM
Kd [3]: 1300 nM

B3: Moraxella bovoculi AcrVA5 (natural protein)
chain: MKIELSGGYICYSIEEDEVTIDMVEVTTKRQGIGSQLIDMVKDVAREVGLPIGLYAYPQDDSISQEDLIEFYFSNDFEYDPDDVDGRLMRWS
modifications: C-terminal His-tag left out; the vector-derived PLGS of 6IUF is dropped, so entity number = AcrVA5 number + 4
Ka [4]: 939000 M⁻¹
Kd [4]: 1100 nM
dH [4]: 4230 ± 165 cal/mol
stoichiometry N [4]: 0.596 ± 0.0158
